Experimental data from patent US20250197467A1 (BRIGHT PEAK THERAPEUTICS, published 2025).

T1: IL-18 receptor (IL-18Rαβ) on cells (UniProt Q13478 19-541; O95256 20-599, limits assumed)
T1 sequence (looked up) 1: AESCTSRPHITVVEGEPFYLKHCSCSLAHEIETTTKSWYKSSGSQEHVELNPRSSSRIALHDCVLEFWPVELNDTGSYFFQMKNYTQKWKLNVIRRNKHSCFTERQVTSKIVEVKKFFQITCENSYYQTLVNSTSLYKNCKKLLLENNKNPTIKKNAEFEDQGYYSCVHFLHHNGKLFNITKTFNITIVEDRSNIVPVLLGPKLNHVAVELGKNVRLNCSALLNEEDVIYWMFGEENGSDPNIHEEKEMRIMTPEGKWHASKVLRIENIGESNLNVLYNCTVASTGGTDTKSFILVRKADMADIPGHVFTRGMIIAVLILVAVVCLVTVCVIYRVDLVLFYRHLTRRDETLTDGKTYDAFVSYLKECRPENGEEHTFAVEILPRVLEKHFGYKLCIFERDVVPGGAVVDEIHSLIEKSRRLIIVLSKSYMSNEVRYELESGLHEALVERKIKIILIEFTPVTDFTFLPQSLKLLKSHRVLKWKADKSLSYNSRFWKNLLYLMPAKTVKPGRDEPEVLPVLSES
T1 sequence (looked up) 2: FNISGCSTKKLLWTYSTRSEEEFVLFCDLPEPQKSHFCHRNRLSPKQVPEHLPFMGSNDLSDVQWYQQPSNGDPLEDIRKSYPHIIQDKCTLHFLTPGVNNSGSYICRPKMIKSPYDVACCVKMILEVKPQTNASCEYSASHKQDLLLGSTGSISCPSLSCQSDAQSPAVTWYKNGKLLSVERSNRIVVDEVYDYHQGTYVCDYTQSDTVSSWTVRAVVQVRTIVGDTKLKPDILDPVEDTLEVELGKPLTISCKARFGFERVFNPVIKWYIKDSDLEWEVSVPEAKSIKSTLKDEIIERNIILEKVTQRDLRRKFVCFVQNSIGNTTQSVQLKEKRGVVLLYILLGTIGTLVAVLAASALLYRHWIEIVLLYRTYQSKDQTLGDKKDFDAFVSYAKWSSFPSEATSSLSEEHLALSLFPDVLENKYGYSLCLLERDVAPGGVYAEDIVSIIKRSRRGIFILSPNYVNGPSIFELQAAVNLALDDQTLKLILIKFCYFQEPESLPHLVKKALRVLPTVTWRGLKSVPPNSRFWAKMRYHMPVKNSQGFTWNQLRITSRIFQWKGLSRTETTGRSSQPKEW

T2: IL-18 receptor alpha subunit (Biotinylated for capture on streptavidin (SAX2) biosensors. The site and tag are not given in the patent.)
T2 construct: also called IL18 receptor alpha (Acro, IL1-H82E7); IL-18Ra
T2 chain: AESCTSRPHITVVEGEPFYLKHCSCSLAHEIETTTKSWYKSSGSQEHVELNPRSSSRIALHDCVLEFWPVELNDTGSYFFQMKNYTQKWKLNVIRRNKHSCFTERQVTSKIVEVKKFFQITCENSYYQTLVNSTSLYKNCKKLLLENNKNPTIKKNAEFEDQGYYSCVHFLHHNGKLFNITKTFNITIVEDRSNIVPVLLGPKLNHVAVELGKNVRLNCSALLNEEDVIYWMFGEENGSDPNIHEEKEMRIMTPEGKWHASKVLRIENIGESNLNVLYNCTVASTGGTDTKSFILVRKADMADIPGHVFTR


Experiments:
[1] = biological target: T1, IL-18 receptor (IL-18Rαβ) on cells; assay: cell-based or functional assay
[2] = biological target: T1, IL-18 receptor (IL-18Rαβ) on cells; assay: cell-based or functional assay; remark: listed apart in the source
[3] = biological target: T2, IL-18 receptor alpha subunit; assay: BLI (Octet R8), IL-18 receptor alpha on streptavidin (SAX2) biosensor, analyte 1000 nM to 1.25 nM in 1:3 dilutions
Text: Act-IL18 candidates C185, C314, and C315 were digested as described above and characterized by BLI. Briefly, undigested and digested samples were compared for their binding against IL18 receptor on an Octet R8 (Sartorius).

[4] = biological target: T1, IL-18 receptor (IL-18Rαβ) on cells; assay: cell-based or functional assay; remark: listed apart in the source
[5] = biological target: T1, IL-18 receptor (IL-18Rαβ) on cells; assay: cell-based or functional assay; remark: listed apart in the source
[6] = biological target: T1, IL-18 receptor (IL-18Rαβ) on cells; assay: cell-based or functional assay; remark: listed apart in the source

Binder	IFNγ release NK-92 assay EC50 [1] [nM]	Hek Blue reporter assay EC50 [2] [pM]	binding result [3]	Fold potency loss vs C086 [4] [fold]	HEK-blue EC50 [4] [nM]	IFNg release PBMCs assay EC50 [5] [nM]	HEK-Blue IL-18R reporter EC50 [6] [pM]
C190 (ligand) MAAEPVEDNCINFVAMKFIDNTLYFIAEDDENLESDYFGKLKSKLSIIRNLNDQVLFIDQGNRPLFEDMTDSDARDNAPRTIFIISMYADSQPRGMAVAISVKCEKISTLSAENKIISFKEMNPPDNIKDTKSDIIFFQRSVPGHDNKMQFESSSYEGYFLAAEKERDLFKLILKKEDELGDRSIMFTVQNED	–	404	–	–	404	–	–
C190 + MMP9 (ligand) MAAEPVEDNCINFVAMKFIDNTLYFIAEDDENLESDYFGKLKSKLSIIRNLNDQVLFIDQGNRPLFEDMTDSDARDNAPRTIFIISMYADSQPRGMAVAISVKCEKISTLSAENKIISFKEMNPPDNIKDTKSDIIFFQRSVPGHDNKMQFESSSYEGYFLAAEKERDLFKLILKKEDELGDRSIMFTVQNED	–	198	–	–	198	–	–
C127 (ligand) MAAEPVEDNCINFVAMKFIDNTLYFIAEDDENLESDSGGPGPAGMKGLPGSYFGKLKSKLSIIRNLNDQVLFIDQGNRPLFEDMTDSDARDNAPRTIFIISMYADSQPRGMAVAISVKCEKISTLSAENKIISFKEMNPPDNIKDTKSDIIFFQRSVPGHDNKMQFESSSYEGYFLAAEKERDLFKLILKKEDELGDRSIMFTVQNED	–	295	–	7000	295	–	–

Other lines, results leading:

IFNγ release NK-92 assay EC50 [1] [nM]	Hek Blue reporter assay EC50 [2] [pM]	binding result [3]	Fold potency loss vs C086 [4] [fold]	HEK-blue EC50 [4] [nM]	IFNg release PBMCs assay EC50 [5] [nM]	HEK-Blue IL-18R reporter EC50 [6] [pM]	Binder
210	2790	no binding	60900	2560	–	–	C185 (ligand) MAAEPVEDNCINFVAMKFIDNTLYFIAEDDENLESDPLGYFGKLKSKLSIIRNLNDQVLFIDQGNRPLFEDMTDSDARDNAPRTIFIISMYADSQPRGMAVAISVKCEKISTLSAENKIISFKEMNPPDNIKDTKSDIIFFQRSVPGHDNKMQFESSSYEGYFLAAEKERDLFKLILKKEDELGDRSIMFTVQNED
0.0018	0.057	–	–	0.04	0.0022	0.034	C086 (SEQ ID NO: 30) (ligand) YFGKLKSKLSIIRNLNDQVLFIDQGNRPLFEDMTDSDARDNAPRTIFIISMYADSQPRGMAVAISVKCEKISTLSAENKIISFKEMNPPDNIKDTKSDIIFFQRSVPGHDNKMQFESSSYEGYFLAAEKERDLFKLILKKEDELGDRSIMFTVQNED
–	2.08	–	49	2.08	–	–	C137 (ligand) YFGKLKSKLSIIRNLNDQVLFIDQGNRPLFEDMTDSDARDNAPRTIFIISMYADSQPRGMAVAISVKCEKISTLSAENKIISFKEMNPPDNIKDTKSDIIFFQRSVPGHDNKMQFESSSYEGYFLAAEKERDLFKLILKKEDELGDRSIMFTVQNEGGGGSGGGGSGGGGSNIVPVLLGPKLNHVAVELGKNVRLNCSALLNEEDVIYWMFGEENGSDPNIHEEKEMRIMTPEGKWHASKVLRIENIGESNLNVLYNCTVASTGGTDTKSFILVRKADHHHHHH
